These results are taken from patent US20180273587A1 (AILERON THERAPEUTICS, published 2018).

B1: SEQ ID NO: 1767 (peptide)
peptide: Ac-IWIAQA[αMeL]R[R8]IGDAFN[S5]YYA-NH2
modifications: staple 9-16
SMILES: CC[C@H](C)[C@H](NC(C)=O)C(=O)N[C@@H](Cc1c[nH]c2ccccc12)C(=O)N[C@H](C(=O)N[C@@H](C)C(=O)N[C@@H](CCC(N)=O)C(=O)N[C@@H](C)C(=O)N[C@@](C)(CC(C)C)C(=O)N[C@@H](CCCNC(=N)N)C(=O)N[C@]1(C)CCCCCCC=CCCC[C@@](C)(C(=O)N[C@@H](Cc2ccc(O)cc2)C(=O)N[C@@H](Cc2ccc(O)cc2)C(=O)N[C@@H](C)C(N)=O)NC(=O)[C@H](CC(N)=O)NC(=O)[C@H](Cc2ccccc2)NC(=O)[C@H](C)NC(=O)[C@H](CC(=O)O)NC(=O)CNC(=O)[C@H]([C@@H](C)CC)NC1=O)[C@@H](C)CC
notes: Row prints Ac-IWIAQAAmLR$r8IGDAFN$YYA-NH2
B2: SEQ ID NO: 1774 (peptide)
peptide: Ac-IWIAQAL[Cit][R8]IGDAVN[S5]YYA-NH2
modifications: staple 9-16
SMILES: CC[C@H](C)[C@H](NC(C)=O)C(=O)N[C@@H](Cc1c[nH]c2ccccc12)C(=O)N[C@H](C(=O)N[C@@H](C)C(=O)N[C@@H](CCC(N)=O)C(=O)N[C@@H](C)C(=O)N[C@@H](CC(C)C)C(=O)N[C@@H](CCCNC(N)=O)C(=O)N[C@]1(C)CCCCCCC=CCCC[C@@](C)(C(=O)N[C@@H](Cc2ccc(O)cc2)C(=O)N[C@@H](Cc2ccc(O)cc2)C(=O)N[C@@H](C)C(N)=O)NC(=O)[C@H](CC(N)=O)NC(=O)[C@H](C(C)C)NC(=O)[C@H](C)NC(=O)[C@H](CC(=O)O)NC(=O)CNC(=O)[C@H]([C@@H](C)CC)NC1=O)[C@@H](C)CC
B3: SEQ ID NO: 1773 (peptide)
peptide: Ac-IWIAQAL[Cit][R8]IGDAAN[S5]YYA-NH2
modifications: staple 9-16
SMILES: CC[C@H](C)[C@H](NC(C)=O)C(=O)N[C@@H](Cc1c[nH]c2ccccc12)C(=O)N[C@H](C(=O)N[C@@H](C)C(=O)N[C@@H](CCC(N)=O)C(=O)N[C@@H](C)C(=O)N[C@@H](CC(C)C)C(=O)N[C@@H](CCCNC(N)=O)C(=O)N[C@]1(C)CCCCCCC=CCCC[C@@](C)(C(=O)N[C@@H](Cc2ccc(O)cc2)C(=O)N[C@@H](Cc2ccc(O)cc2)C(=O)N[C@@H](C)C(N)=O)NC(=O)[C@H](CC(N)=O)NC(=O)[C@H](C)NC(=O)[C@H](C)NC(=O)[C@H](CC(=O)O)NC(=O)CNC(=O)[C@H]([C@@H](C)CC)NC1=O)[C@@H](C)CC
B4: SEQ ID NO: 1779 (peptide)
peptide: Ac-AWIAAALR[R8][hLeu]GDAFN[S5]Y[Phe(4-F)]A-NH2
modifications: staple 9-16
SMILES: CC[C@H](C)[C@H](NC(=O)[C@H](Cc1c[nH]c2ccccc12)NC(=O)[C@H](C)NC(C)=O)C(=O)N[C@@H](C)C(=O)N[C@@H](C)C(=O)N[C@@H](C)C(=O)N[C@@H](CC(C)C)C(=O)N[C@@H](CCCNC(=N)N)C(=O)N[C@]1(C)CCCCCCC=CCCC[C@@](C)(C(=O)N[C@@H](Cc2ccc(O)cc2)C(=O)N[C@@H](Cc2ccc(F)cc2)C(=O)N[C@@H](C)C(N)=O)NC(=O)[C@H](CC(N)=O)NC(=O)[C@H](Cc2ccccc2)NC(=O)[C@H](C)NC(=O)[C@H](CC(=O)O)NC(=O)CNC(=O)[C@H](CCC(C)C)NC1=O
B5: SEQ ID NO: 1776 (peptide)
peptide: Ac-IWIAQALR[R8][hLeu]GDAFN[S5][Phe(4-F)]YA-NH2
modifications: staple 9-16
SMILES: CC[C@H](C)[C@H](NC(C)=O)C(=O)N[C@@H](Cc1c[nH]c2ccccc12)C(=O)N[C@H](C(=O)N[C@@H](C)C(=O)N[C@@H](CCC(N)=O)C(=O)N[C@@H](C)C(=O)N[C@@H](CC(C)C)C(=O)N[C@@H](CCCNC(=N)N)C(=O)N[C@]1(C)CCCCCCC=CCCC[C@@](C)(C(=O)N[C@@H](Cc2ccc(F)cc2)C(=O)N[C@@H](Cc2ccc(O)cc2)C(=O)N[C@@H](C)C(N)=O)NC(=O)[C@H](CC(N)=O)NC(=O)[C@H](Cc2ccccc2)NC(=O)[C@H](C)NC(=O)[C@H](CC(=O)O)NC(=O)CNC(=O)[C@H](CCC(C)C)NC1=O)[C@@H](C)CC
B6: SEQ ID NO: 1778 (peptide)
peptide: Ac-IWIAQALR[R8][hLeu]GDAFN[S5][Phe(4-F)][Phe(4-F)]A-NH2
modifications: staple 9-16
SMILES: CC[C@H](C)[C@H](NC(C)=O)C(=O)N[C@@H](Cc1c[nH]c2ccccc12)C(=O)N[C@H](C(=O)N[C@@H](C)C(=O)N[C@@H](CCC(N)=O)C(=O)N[C@@H](C)C(=O)N[C@@H](CC(C)C)C(=O)N[C@@H](CCCNC(=N)N)C(=O)N[C@]1(C)CCCCCCC=CCCC[C@@](C)(C(=O)N[C@@H](Cc2ccc(F)cc2)C(=O)N[C@@H](Cc2ccc(F)cc2)C(=O)N[C@@H](C)C(N)=O)NC(=O)[C@H](CC(N)=O)NC(=O)[C@H](Cc2ccccc2)NC(=O)[C@H](C)NC(=O)[C@H](CC(=O)O)NC(=O)CNC(=O)[C@H](CCC(C)C)NC1=O)[C@@H](C)CC
B7: SEQ ID NO: 1777 (peptide)
peptide: Ac-IWIAQALR[R8][hLeu]GDAFN[S5]Y[Phe(4-F)]A-NH2
modifications: staple 9-16
SMILES: CC[C@H](C)[C@H](NC(C)=O)C(=O)N[C@@H](Cc1c[nH]c2ccccc12)C(=O)N[C@H](C(=O)N[C@@H](C)C(=O)N[C@@H](CCC(N)=O)C(=O)N[C@@H](C)C(=O)N[C@@H](CC(C)C)C(=O)N[C@@H](CCCNC(=N)N)C(=O)N[C@]1(C)CCCCCCC=CCCC[C@@](C)(C(=O)N[C@@H](Cc2ccc(O)cc2)C(=O)N[C@@H](Cc2ccc(F)cc2)C(=O)N[C@@H](C)C(N)=O)NC(=O)[C@H](CC(N)=O)NC(=O)[C@H](Cc2ccccc2)NC(=O)[C@H](C)NC(=O)[C@H](CC(=O)O)NC(=O)CNC(=O)[C@H](CCC(C)C)NC1=O)[C@@H](C)CC
B8: SEQ ID NO: 1768 (peptide)
peptide: Ac-IWIAQALR[R8]IG[αMeD]AFN[S5]YYA-NH2
modifications: staple 9-16
SMILES: CC[C@H](C)[C@H](NC(C)=O)C(=O)N[C@@H](Cc1c[nH]c2ccccc12)C(=O)N[C@H](C(=O)N[C@@H](C)C(=O)N[C@@H](CCC(N)=O)C(=O)N[C@@H](C)C(=O)N[C@@H](CC(C)C)C(=O)N[C@@H](CCCNC(=N)N)C(=O)N[C@]1(C)CCCCCCC=CCCC[C@@](C)(C(=O)N[C@@H](Cc2ccc(O)cc2)C(=O)N[C@@H](Cc2ccc(O)cc2)C(=O)N[C@@H](C)C(N)=O)NC(=O)[C@H](CC(N)=O)NC(=O)[C@H](Cc2ccccc2)NC(=O)[C@H](C)NC(=O)[C@](C)(CC(=O)O)NC(=O)CNC(=O)[C@H]([C@@H](C)CC)NC1=O)[C@@H](C)CC
B9: SEQ ID NO: 1771 (peptide)
peptide: Ac-IWIAQAA[Cit][R8]IGDAFN[S5]YYA-NH2
modifications: staple 9-16
SMILES: CC[C@H](C)[C@H](NC(C)=O)C(=O)N[C@@H](Cc1c[nH]c2ccccc12)C(=O)N[C@H](C(=O)N[C@@H](C)C(=O)N[C@@H](CCC(N)=O)C(=O)N[C@@H](C)C(=O)N[C@@H](C)C(=O)N[C@@H](CCCNC(N)=O)C(=O)N[C@]1(C)CCCCCCC=CCCC[C@@](C)(C(=O)N[C@@H](Cc2ccc(O)cc2)C(=O)N[C@@H](Cc2ccc(O)cc2)C(=O)N[C@@H](C)C(N)=O)NC(=O)[C@H](CC(N)=O)NC(=O)[C@H](Cc2ccccc2)NC(=O)[C@H](C)NC(=O)[C@H](CC(=O)O)NC(=O)CNC(=O)[C@H]([C@@H](C)CC)NC1=O)[C@@H](C)CC
B10: SEQ ID NO: 1655 (peptide)
peptide: IWIAQALXAIGDAFNAYYA
modifications: Ac- at N-terminus; -NH2 at C-terminus; $r8 at 9 and $ at 16 joined by all-carbon crosslinker; Cit (citrulline) at 8
B11: SEQ ID NO: 1715 (peptide)
peptide: Ac-IW[Ac5c]AQALR[R8]IGDAFN[S5]YYA-NH2
modifications: staple 9-16
SMILES: CC[C@H](C)[C@H](NC(C)=O)C(=O)N[C@@H](Cc1c[nH]c2ccccc12)C(=O)NC1(C(=O)N[C@@H](C)C(=O)N[C@@H](CCC(N)=O)C(=O)N[C@@H](C)C(=O)N[C@@H](CC(C)C)C(=O)N[C@@H](CCCNC(=N)N)C(=O)N[C@]2(C)CCCCCCC=CCCC[C@@](C)(C(=O)N[C@@H](Cc3ccc(O)cc3)C(=O)N[C@@H](Cc3ccc(O)cc3)C(=O)N[C@@H](C)C(N)=O)NC(=O)[C@H](CC(N)=O)NC(=O)[C@H](Cc3ccccc3)NC(=O)[C@H](C)NC(=O)[C@H](CC(=O)O)NC(=O)CNC(=O)[C@H]([C@@H](C)CC)NC2=O)CCCC1
notes: also called Ac-IWAc5cAQALR$r8IGDAFN$YYA-NH2
B12: SEQ ID NO: 1723 (peptide)
peptide: Ac-[Aib]WIAAALR[R8]IGDAFN[S5]YYA-NH2
modifications: staple 9-16
SMILES: CC[C@H](C)[C@H](NC(=O)[C@H](Cc1c[nH]c2ccccc12)NC(=O)C(C)(C)NC(C)=O)C(=O)N[C@@H](C)C(=O)N[C@@H](C)C(=O)N[C@@H](C)C(=O)N[C@@H](CC(C)C)C(=O)N[C@@H](CCCNC(=N)N)C(=O)N[C@]1(C)CCCCCCC=CCCC[C@@](C)(C(=O)N[C@@H](Cc2ccc(O)cc2)C(=O)N[C@@H](Cc2ccc(O)cc2)C(=O)N[C@@H](C)C(N)=O)NC(=O)[C@H](CC(N)=O)NC(=O)[C@H](Cc2ccccc2)NC(=O)[C@H](C)NC(=O)[C@H](CC(=O)O)NC(=O)CNC(=O)[C@H]([C@@H](C)CC)NC1=O
notes: also called Ac-AibWIAAALR$r8IGDAFN$YYA-NH2

Positions of bridges follow the written chain, without caps; N, C: chain ends. Non-standard residues stand in square brackets, D forms with d. Phe(4-F) = N[C@@H](Cc1ccc(F)cc1)C(=O)O; R8 = C=CCCCCCC[C@@](C)(N)C(=O)O; Cit = NC(=O)NCCC[C@H](N)C(=O)O; αMeD = C[C@](N)(CC(=O)O)C(=O)O; αMeL = CC(C)C[C@](C)(N)C(=O)O; hLeu = CC(C)CC[C@H](N)C(=O)O; S5 = C=CCCC[C@](C)(N)C(=O)O; Ac5c = NC1(C(=O)O)CCCC1; Aib = CC(C)(N)C(=O)O

One experiment addresses T1, MCL-1 (UniProt Q07820 172-327, limits assumed).
T1 construct: Target of the Ki columns; also called Myeloid cell leukemia 1
As to the kind of experiment: Ki; method not stated; unit not printed (nM per Table 6).
T1 sequence (Q07820 172-327 limits assumed): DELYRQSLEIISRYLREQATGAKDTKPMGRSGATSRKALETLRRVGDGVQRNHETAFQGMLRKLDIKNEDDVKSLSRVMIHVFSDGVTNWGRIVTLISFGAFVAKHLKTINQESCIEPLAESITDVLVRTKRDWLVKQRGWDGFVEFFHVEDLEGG
In turn, B1 came in with a Ki of 86.6 nM.
On the same count and under the same terms, to B2 belongs 0.8 nM.
On the same count and under the same terms, to B3 belongs 39.5 nM; to B4, 52 nM.
On the same count and under the same terms, with B5 the figure was 58 nM; with B6, 127 nM; with B7, 27 nM.

The target in the next experiment is T2, BCL-XL (UniProt Q07817 1-209).
T2 construct: Target of the Ki columns
The description is as above.
T2 sequence (Q07817 1-209): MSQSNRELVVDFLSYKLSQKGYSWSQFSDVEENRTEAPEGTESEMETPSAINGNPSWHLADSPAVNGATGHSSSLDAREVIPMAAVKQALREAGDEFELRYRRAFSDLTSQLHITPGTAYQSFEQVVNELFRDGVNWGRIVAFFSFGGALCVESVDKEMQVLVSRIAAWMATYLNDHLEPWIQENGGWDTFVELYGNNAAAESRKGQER
For the molecule B8, the Ki is 206 nM.
Still for that read-out and setting: to B9 belongs 85 nM; to B4, 37 nM.
The same measure, in the same setting: to B5 belongs 43 nM.
As for B6, the affinity, expressed as Ki, was 121 nM.
As for B7, the affinity, expressed as Ki, was 13 nM.

Another experiment concerns the target BCL-XL (UniProt Q07817 1-209). Kind of experiment: Ki table, method not stated.
Target sequence in this assay (Q07817 1-209): as above
In the case of B10, the Ki stood at 109 nM.
Consider B11, for which the affinity, expressed as Ki, was 8.4 nM.
The molecule B12 registered a Ki of 20.3 nM.

The target of a further experiment is T3, MCL-1 (UniProt Q07820 172-327, limits assumed).
T3 construct: also called Myeloid cell leukemia 1
Kind of experiment: Ki table, method not stated.
T3 sequence (Q07820 172-327 limits assumed): as the sequence (Q07820 172-327 limits assumed) above
For the molecule B10, the affinity corresponds to a Ki of 7.5 nM.
Consider B11, for which affinity was put at a Ki of 8.9 nM.
The same measure, in the same setting: to B12 belongs 4 nM.

The target of another experiment is BCL-2 (UniProt P10415 1-217, limits assumed). Kind of experiment: Ki table, method not stated.
BCL-2, sequence (P10415 1-217 limits assumed): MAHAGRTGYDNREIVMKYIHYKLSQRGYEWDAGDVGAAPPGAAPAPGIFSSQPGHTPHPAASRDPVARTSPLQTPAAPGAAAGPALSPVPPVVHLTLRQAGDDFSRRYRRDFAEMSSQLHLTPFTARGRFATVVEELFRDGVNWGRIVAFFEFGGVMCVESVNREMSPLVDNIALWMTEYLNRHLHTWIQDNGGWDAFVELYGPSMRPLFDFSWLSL
On to B10, for which the inhibition constant Ki was found to be 212 nM.
On to B11, for which the Ki is 68.2 nM.
Still for that read-out and setting: with B12 the figure was 56 nM.

As usually defined, the Ki is a dissociation constant, usually derived from enzyme kinetics or from competition with a known ligand. A high value points to weaker binding.
